Where two headings read alike, the source gives them in different places.
B1: rat CD164 (rCD164): T102N rCD164 (protein)
parent chain: MSGASRGLFWAATCLAALCLSAAQSNSSASPNVTDPPTTTSKVVPTTLTTTKPPETCESFNSCVSCVNATLTNNITCVWLDCHEANKTYCSSELVSNCTQKTSTDSCSVIPTTPVPTNSTAKPTTRPSSPTPTPSVVTSAGATNTTVTPTSQPERKSTFDAASFIGGIVLVLGVQAVIFFLYKFCKSKERNYHTL
B2: CD164: N104Q hCD164PM (protein)
parent chain: MSRLSRSLLWAATCLGVLCVLSADKNTTQHPNVTTLAPISNVTSAPVTSLPLVTTPAPETCEGRNSCVSCFNVSVVNTTCFWIECKDESYCSHNSTVSDCQVGNTTDFCSVSTATPVPTANSTAKPTVQPSPSTTSKTVTTSGTTNNTVTPTSQPVRKSTFDAASFIGGIVLVLGVQAVIFFLYKFCKSKERNYHTL
B3: CD164: N72Q (protein)
parent chain: B2 parent chain
B4: CD164: N77Q (protein)
parent chain: B2 parent chain
B5: CD164: N94Q (protein)
parent chain: B2 parent chain
B6: CD164: N104Q (protein)
parent chain: B2 parent chain

What was measured:
[1] = expression in HeLaΔCD164 (SI Fig. S4); settings: glycan lost; control: WT CD164

Protein	other: support of virus infection (glycan gained)	other: cell-cell membrane fusion (glycan lost)	expression_or_secretion [1]	other: support of virus infection (glycan lost)
B1	increases			
B2		abolishes		
B3			no change	no change
B4			no change	no change
B5			no change	no change
B6			no change	decreases

Source: publication PMC8915965
